{
  "source": "patent US20180346600A1",
  "experiment_in_all_cases": "HEK293-F co-expression, Protein A purification, non-reducing SDS-PAGE densitometry",
  "key": {"[1]": {"biological_target": "scFv-FcCH3A, A107 (K370E/K409W) (human) [IgG part: P0DOX5]"}, "[2]": {"biological_target": "scFv-FcCH3A, A107w/oW-VT (K370E) (human) [IgG part: P0DOX5]"}, "[3]": {"biological_target": "scFv-FcCH3A, A107w/oW-VT (K370E) (human) [IgG part: P0DOX5]", "remark": "listed apart in the source"}, "[4]": {"biological_target": "scFv-FcCH3A, A109 (K370M/K409W) (human) [IgG part: P0DOX5]"}, "[5]": {"biological_target": "scFv-FcCH3A, A109w/oW-VT (K370M) (human) [IgG part: P0DOX5]"}, "[6]": {"biological_target": "scFv-FcCH3A, A146w/oW-VT (K370D) (human) [IgG part: P0DOX5]"}, "[7]": {"biological_target": "scFv-FcCH3A, A205 (E357D/S364W/K370E) (human) [IgG part: P0DOX5]"}, "[8]": {"biological_target": "scFv-FcCH3A, A210 (E357A/S364Y/K370E) (human) [IgG part: P0DOX5]"}, "[9]": {"biological_target": "scFv-FcCH3A, A216 (E357G/S364W/K370E) (human) [IgG part: P0DOX5]"}, "[10]": {"biological_target": "scFv-FcCH3A, A241 (E357N/S364W/K370E) (human) [IgG part: P0DOX5]"}, "[11]": {"biological_target": "scFv-FcCH3A, B121 (D399E/K409W) (human) [IgG part: P0DOX5]"}, "[12]": {"biological_target": "scFv-FcCH3A, B135 (D399L/K409W) (human) [IgG part: P0DOX5]"}, "[13]": {"biological_target": "scFv-FcCH3A, B168 (D399L/K409W) (human) [IgG part: P0DOX5]"}, "[14]": {"biological_target": "scFv-FcCH3A, B168w/oW-VT (D399L) (human) [IgG part: P0DOX5]"}, "[15]": {"biological_target": "scFv-FcCH3A, B168w/oW-VT (D399L) (human) [IgG part: P0DOX5]", "remark": "listed apart in the source"}, "[16]": {"biological_target": "scFv-FcCH3A, B212 (K392I/D399L) (human) [IgG part: P0DOX5]"}, "[17]": {"biological_target": "scFv-FcCH3A, B215 (K392R/K409R/D399L) (human) [IgG part: P0DOX5]"}, "[18]": {"biological_target": "scFv-FcCH3A, B235 (K392C/D399L) (human) [IgG part: P0DOX5]"}, "[19]": {"biological_target": "scFv-FcCH3A, B239 (K392L/D399L) (human) [IgG part: P0DOX5]"}, "[20]": {"biological_target": "scFv-FcCH3A, B240 (K392S/K409R/D399L) (human) [IgG part: P0DOX5]"}, "[21]": {"biological_target": "scFv-FcCH3A, B256 (K392N/D399L) (human) [IgG part: P0DOX5]"}, "[22]": {"biological_target": "scFv-FcCH3A, EW-RVT (K360E/K409W) (human)"}, "[23]": {"biological_target": "scFv-FcCH3A, EW-RVT (K360E/K409W) (human)", "remark": "listed apart in the source"}, "[24]": {"biological_target": "scFv-FcCH3A, W-VT (K409W) (human) [IgG part: P0DOX5]"}},
  "note": "Read-outs that look alike come from different tables or passages of the source.",
  "data": [
    {"substance": "scFv-FcCH3A, A107 (K370E/K409W) (from UniProt P0DOX5 227-449) (Fc fusion)", "values": [
      {"measurement": "(scFv-Fc)2 (homodimer)(%)", "setting": "[1]", "value": 4.2, "unit": "%"}
    ]},
    {"substance": "scFv-FcCH3A, A107w/oW-VT (K370E) (from UniProt P0DOX5 227-449) (Fc fusion)", "values": [
      {"measurement": "(scFv-Fc)2 (homodimer)(%)", "setting": "[2]", "value": 21.3, "unit": "%"},
      {"measurement": "(scFv-Fc)2 (homodimer)(%)", "setting": "[3]", "value": 21.3, "unit": "%"}
    ]},
    {"substance": "scFv-FcCH3A, A109 (K370M/K409W) (from UniProt P0DOX5 227-449) (Fc fusion)", "values": [
      {"measurement": "(scFv-Fc)2 (homodimer)(%)", "setting": "[4]", "value": 0.5, "unit": "%"}
    ]},
    {"substance": "scFv-FcCH3A, A109w/oW-VT (K370M) (from UniProt P0DOX5 227-449) (Fc fusion)", "values": [
      {"measurement": "(scFv-Fc)2 (homodimer)(%)", "setting": "[5]", "value": 5.6, "unit": "%"}
    ]},
    {"substance": "scFv-FcCH3A, A146w/oW-VT (K370D) (from UniProt P0DOX5 227-449) (Fc fusion)", "values": [
      {"measurement": "(scFv-Fc)2 (homodimer)(%)", "setting": "[6]", "value": 4.6, "unit": "%"}
    ]},
    {"substance": "scFv-FcCH3A, A205 (E357D/S364W/K370E) (from UniProt P0DOX5 227-449) (Fc fusion)", "values": [
      {"measurement": "(scFv-Fc)2 (homodimer)(%)", "setting": "[7]", "value": 1, "unit": "%"}
    ]},
    {"substance": "scFv-FcCH3A, A210 (E357A/S364Y/K370E) (from UniProt P0DOX5 227-449) (Fc fusion)", "values": [
      {"measurement": "(scFv-Fc)2 (homodimer)(%)", "setting": "[8]", "value": 9.9, "unit": "%"}
    ]},
    {"substance": "scFv-FcCH3A, A216 (E357G/S364W/K370E) (from UniProt P0DOX5 227-449) (Fc fusion)", "values": [
      {"measurement": "(scFv-Fc)2 (homodimer)(%)", "setting": "[9]", "value": 1.5, "unit": "%"}
    ]},
    {"substance": "scFv-FcCH3A, A241 (E357N/S364W/K370E) (from UniProt P0DOX5 227-449) (Fc fusion)", "values": [
      {"measurement": "(scFv-Fc)2 (homodimer)(%)", "setting": "[10]", "value": 15.7, "unit": "%"}
    ]},
    {"substance": "scFv-FcCH3A, B121 (D399E/K409W) (from UniProt P0DOX5 227-449) (Fc fusion)", "values": [
      {"measurement": "(scFv-Fc)2 (homodimer)(%)", "setting": "[11]", "value": 1.5, "unit": "%"}
    ]},
    {"substance": "scFv-FcCH3A, B135 (D399L/K409W) (from UniProt P0DOX5 227-449) (Fc fusion)", "values": [
      {"measurement": "(scFv-Fc)2 (homodimer)(%)", "setting": "[12]", "value": 4.1, "unit": "%"}
    ]},
    {"substance": "scFv-FcCH3A, B168 (D399L/K409W) (from UniProt P0DOX5 227-449) (Fc fusion)", "values": [
      {"measurement": "(scFv-Fc)2 (homodimer)(%)", "setting": "[13]", "value": 1.2, "unit": "%"}
    ]},
    {"substance": "scFv-FcCH3A, B168w/oW-VT (D399L) (from UniProt P0DOX5 227-449) (Fc fusion)", "values": [
      {"measurement": "(scFv-Fc)2 (homodimer)(%)", "setting": "[14]", "value": 1.6, "unit": "%"},
      {"measurement": "(scFv-Fc)2 (homodimer)(%)", "setting": "[15]", "value": 1.5, "unit": "%"}
    ]},
    {"substance": "scFv-FcCH3A, B212 (K392I/D399L) (from UniProt P0DOX5 227-449) (Fc fusion)", "values": [
      {"measurement": "(scFv-Fc)2 (homodimer)(%)", "setting": "[16]", "value": 0.9, "unit": "%"}
    ]},
    {"substance": "scFv-FcCH3A, B215 (K392R/K409R/D399L) (from UniProt P0DOX5 227-449) (Fc fusion)", "values": [
      {"measurement": "(scFv-Fc)2 (homodimer)(%)", "setting": "[17]", "value": 1.9, "unit": "%"}
    ]},
    {"substance": "scFv-FcCH3A, B235 (K392C/D399L) (from UniProt P0DOX5 227-449) (Fc fusion)", "values": [
      {"measurement": "(scFv-Fc)2 (homodimer)(%)", "setting": "[18]", "value": 3.7, "unit": "%"}
    ]},
    {"substance": "scFv-FcCH3A, B239 (K392L/D399L) (from UniProt P0DOX5 227-449) (Fc fusion)", "values": [
      {"measurement": "(scFv-Fc)2 (homodimer)(%)", "setting": "[19]", "value": 3.4, "unit": "%"}
    ]},
    {"substance": "scFv-FcCH3A, B240 (K392S/K409R/D399L) (from UniProt P0DOX5 227-449) (Fc fusion)", "values": [
      {"measurement": "(scFv-Fc)2 (homodimer)(%)", "setting": "[20]", "value": 4.8, "unit": "%"}
    ]},
    {"substance": "scFv-FcCH3A, B256 (K392N/D399L) (from UniProt P0DOX5 227-449) (Fc fusion)", "values": [
      {"measurement": "(scFv-Fc)2 (homodimer)(%)", "setting": "[21]", "value": 3.9, "unit": "%"}
    ]},
    {"substance": "scFv-FcCH3A, EW-RVT (K360E/K409W) (Fc fusion)", "values": [
      {"measurement": "(scFv-Fc)2 (homodimer)(%)", "setting": "[22]", "value": 0.5, "unit": "%"},
      {"measurement": "(scFv-Fc)2 (homodimer)(%)", "setting": "[23]", "value": 0.5, "unit": "%"}
    ]},
    {"substance": "scFv-FcCH3A, W-VT (K409W) (from UniProt P0DOX5 227-449) (Fc fusion)", "values": [
      {"measurement": "(scFv-Fc)2 (homodimer)(%)", "setting": "[24]", "value": 1.4, "unit": "%"}
    ]}
  ]
}
